Results: the supplement of paper PMC10065799, “High-throughput profiling of sequence recognition by tyrosine kinases and SH2 domains using bacterial peptide display” (eLife, 2023)

Tests used:
AncSZ = test: phosphorylation enrichment, bacterial display (enrichment ratio); higher = better substrate or ligand; peptides without Tyr show the background
EPHB1 = EPHB1 (UniProt P54762); test: as above
EPHB2 = EPHB2 (UniProt P29323); test: as above
FGFR1 = FGFR1 (UniProt P11362); test: as above
FGFR3 = FGFR3 (UniProt P22607); test: as above
Fer (mouse) = test: as above
Fes = Fes (UniProt P07332); test: as above
Fyn = Fyn (UniProt P06241); test: as above
Hck = Hck (UniProt P08631); test: as above
Hck, sequence (P08631 whole entry, looked up): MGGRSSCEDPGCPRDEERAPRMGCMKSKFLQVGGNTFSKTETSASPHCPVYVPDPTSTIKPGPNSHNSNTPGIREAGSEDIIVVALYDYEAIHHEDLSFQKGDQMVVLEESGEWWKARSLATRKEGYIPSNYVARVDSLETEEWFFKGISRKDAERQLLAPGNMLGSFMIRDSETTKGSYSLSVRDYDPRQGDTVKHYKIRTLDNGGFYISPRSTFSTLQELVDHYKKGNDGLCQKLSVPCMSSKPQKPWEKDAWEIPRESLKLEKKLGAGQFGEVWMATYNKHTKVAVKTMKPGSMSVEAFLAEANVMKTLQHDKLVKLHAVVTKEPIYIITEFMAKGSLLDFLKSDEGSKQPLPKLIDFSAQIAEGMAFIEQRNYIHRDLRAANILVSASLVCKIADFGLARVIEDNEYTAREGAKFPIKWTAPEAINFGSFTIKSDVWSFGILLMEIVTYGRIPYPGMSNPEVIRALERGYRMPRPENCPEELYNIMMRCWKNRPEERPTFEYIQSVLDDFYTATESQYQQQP

Jak2 = Jak2 (UniProt O60674); test: as above
Jak2, sequence (O60674 whole entry, looked up): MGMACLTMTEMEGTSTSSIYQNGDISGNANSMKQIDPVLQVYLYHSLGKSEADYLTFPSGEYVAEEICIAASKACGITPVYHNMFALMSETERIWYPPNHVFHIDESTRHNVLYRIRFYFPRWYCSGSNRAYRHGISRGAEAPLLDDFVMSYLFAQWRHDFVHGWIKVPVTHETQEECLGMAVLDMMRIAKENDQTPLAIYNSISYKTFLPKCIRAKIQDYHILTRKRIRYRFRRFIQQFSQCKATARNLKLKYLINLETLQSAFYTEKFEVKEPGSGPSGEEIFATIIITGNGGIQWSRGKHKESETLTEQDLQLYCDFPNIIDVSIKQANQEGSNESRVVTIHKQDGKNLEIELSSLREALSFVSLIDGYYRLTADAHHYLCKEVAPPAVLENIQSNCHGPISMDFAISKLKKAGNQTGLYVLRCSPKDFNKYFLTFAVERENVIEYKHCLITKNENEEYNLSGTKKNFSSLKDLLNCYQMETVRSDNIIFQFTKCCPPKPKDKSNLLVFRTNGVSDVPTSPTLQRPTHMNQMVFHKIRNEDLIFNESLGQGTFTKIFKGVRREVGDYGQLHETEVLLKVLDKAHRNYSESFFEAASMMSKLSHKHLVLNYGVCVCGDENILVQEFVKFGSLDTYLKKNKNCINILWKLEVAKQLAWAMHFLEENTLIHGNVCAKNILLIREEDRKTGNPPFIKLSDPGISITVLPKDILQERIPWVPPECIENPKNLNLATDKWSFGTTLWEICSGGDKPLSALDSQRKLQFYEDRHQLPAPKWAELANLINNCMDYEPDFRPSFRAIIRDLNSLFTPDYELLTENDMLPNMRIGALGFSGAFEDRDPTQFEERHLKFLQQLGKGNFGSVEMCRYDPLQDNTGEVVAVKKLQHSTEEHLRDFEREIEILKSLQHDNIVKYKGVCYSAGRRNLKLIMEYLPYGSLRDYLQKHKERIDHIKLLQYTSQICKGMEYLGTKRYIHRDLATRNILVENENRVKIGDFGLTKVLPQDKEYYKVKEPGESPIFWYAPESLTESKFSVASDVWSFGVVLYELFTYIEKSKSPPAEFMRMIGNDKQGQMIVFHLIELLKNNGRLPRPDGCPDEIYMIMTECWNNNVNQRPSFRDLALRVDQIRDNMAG

MERTK = MERTK (UniProt Q12866); test: as above
MERTK, sequence (Q12866 whole entry, looked up): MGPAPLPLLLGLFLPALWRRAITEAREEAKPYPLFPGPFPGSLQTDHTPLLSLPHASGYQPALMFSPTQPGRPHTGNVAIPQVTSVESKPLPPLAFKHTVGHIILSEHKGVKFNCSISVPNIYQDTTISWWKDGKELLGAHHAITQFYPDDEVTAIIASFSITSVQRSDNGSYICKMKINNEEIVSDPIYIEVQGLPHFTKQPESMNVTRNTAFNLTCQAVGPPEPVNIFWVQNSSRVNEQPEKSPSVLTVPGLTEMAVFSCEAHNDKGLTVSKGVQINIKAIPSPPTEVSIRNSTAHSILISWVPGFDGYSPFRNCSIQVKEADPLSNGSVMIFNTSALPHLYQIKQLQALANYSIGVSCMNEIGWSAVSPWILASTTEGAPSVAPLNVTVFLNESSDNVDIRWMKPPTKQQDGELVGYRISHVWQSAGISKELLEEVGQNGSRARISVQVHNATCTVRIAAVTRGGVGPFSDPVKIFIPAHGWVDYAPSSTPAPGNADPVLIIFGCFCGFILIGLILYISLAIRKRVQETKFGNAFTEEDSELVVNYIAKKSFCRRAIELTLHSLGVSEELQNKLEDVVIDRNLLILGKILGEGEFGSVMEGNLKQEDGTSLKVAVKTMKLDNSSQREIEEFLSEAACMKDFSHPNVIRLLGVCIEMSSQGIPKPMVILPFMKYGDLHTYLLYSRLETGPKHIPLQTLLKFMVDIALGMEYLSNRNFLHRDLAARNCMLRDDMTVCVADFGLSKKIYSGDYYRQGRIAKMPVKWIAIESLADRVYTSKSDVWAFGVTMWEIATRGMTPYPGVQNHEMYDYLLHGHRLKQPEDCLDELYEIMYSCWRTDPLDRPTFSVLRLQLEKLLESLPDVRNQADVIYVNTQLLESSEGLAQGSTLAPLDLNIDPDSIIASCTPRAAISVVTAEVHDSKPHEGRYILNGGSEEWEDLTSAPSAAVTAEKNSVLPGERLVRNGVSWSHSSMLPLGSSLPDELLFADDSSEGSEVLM

c-Abl (mouse) = test: as above
c-Src = test: as above
Grb2 SH2 = Grb2 SH2 (UniProt P62993); test: SH2 binding enrichment of the phosphorylated peptide, bacterial display (enrichment ratio); higher = better substrate or ligand; peptides without Tyr show the background
Grb2 SH2, sequence (P62993 whole entry, looked up): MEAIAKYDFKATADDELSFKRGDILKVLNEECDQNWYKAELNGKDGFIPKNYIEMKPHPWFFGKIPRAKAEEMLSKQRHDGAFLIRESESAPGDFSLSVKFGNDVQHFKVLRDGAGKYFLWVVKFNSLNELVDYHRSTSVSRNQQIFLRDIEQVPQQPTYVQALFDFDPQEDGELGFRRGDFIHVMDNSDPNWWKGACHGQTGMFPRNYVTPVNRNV

SHP2-C SH2 = test: as above
c-Src SH2 = test: as above
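Throughout, for SH2 binding enrichment of the phosphorylated peptide, bacterial display: peptide library displayed on the E. coli surface as eCPX fusions, selected cells deep-sequenced, score is each peptide's frequency after selection divided by its frequency in the input.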
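Throughout, for phosphorylation enrichment, bacterial display: 11-residue human phosphosite peptides and single-mutation variants displayed on the E. coli surface, counted by deep sequencing, each peptide's frequency after selection divided by its frequency in the unselected input library; frequency after pTyr selection over input frequency; kinase dosed for 20-30% of maximal phosphorylation in three min.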

FGFR1, sequence (P11362 whole entry, looked up): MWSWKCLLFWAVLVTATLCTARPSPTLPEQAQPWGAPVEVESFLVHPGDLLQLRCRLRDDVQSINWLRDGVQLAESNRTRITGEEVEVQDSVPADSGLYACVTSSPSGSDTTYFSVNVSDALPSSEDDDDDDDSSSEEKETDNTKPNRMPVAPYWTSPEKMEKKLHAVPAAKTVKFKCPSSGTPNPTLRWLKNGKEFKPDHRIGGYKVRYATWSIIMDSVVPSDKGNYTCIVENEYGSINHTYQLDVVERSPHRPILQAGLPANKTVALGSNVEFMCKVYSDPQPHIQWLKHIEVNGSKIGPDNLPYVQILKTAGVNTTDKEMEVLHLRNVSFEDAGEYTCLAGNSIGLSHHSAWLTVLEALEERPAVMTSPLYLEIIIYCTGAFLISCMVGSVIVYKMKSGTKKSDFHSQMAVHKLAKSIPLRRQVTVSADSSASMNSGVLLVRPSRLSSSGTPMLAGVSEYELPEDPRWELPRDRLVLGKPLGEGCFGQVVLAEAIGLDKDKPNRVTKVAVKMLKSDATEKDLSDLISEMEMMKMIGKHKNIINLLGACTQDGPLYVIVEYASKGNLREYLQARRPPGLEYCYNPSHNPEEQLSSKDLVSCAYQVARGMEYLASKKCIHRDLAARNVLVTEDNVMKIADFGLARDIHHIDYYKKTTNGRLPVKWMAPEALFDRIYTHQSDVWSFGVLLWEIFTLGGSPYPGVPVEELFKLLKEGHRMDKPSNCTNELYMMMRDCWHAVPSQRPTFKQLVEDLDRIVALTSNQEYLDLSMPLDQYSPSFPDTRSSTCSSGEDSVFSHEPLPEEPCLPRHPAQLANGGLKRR
EPHB1, sequence (P54762 whole entry, looked up): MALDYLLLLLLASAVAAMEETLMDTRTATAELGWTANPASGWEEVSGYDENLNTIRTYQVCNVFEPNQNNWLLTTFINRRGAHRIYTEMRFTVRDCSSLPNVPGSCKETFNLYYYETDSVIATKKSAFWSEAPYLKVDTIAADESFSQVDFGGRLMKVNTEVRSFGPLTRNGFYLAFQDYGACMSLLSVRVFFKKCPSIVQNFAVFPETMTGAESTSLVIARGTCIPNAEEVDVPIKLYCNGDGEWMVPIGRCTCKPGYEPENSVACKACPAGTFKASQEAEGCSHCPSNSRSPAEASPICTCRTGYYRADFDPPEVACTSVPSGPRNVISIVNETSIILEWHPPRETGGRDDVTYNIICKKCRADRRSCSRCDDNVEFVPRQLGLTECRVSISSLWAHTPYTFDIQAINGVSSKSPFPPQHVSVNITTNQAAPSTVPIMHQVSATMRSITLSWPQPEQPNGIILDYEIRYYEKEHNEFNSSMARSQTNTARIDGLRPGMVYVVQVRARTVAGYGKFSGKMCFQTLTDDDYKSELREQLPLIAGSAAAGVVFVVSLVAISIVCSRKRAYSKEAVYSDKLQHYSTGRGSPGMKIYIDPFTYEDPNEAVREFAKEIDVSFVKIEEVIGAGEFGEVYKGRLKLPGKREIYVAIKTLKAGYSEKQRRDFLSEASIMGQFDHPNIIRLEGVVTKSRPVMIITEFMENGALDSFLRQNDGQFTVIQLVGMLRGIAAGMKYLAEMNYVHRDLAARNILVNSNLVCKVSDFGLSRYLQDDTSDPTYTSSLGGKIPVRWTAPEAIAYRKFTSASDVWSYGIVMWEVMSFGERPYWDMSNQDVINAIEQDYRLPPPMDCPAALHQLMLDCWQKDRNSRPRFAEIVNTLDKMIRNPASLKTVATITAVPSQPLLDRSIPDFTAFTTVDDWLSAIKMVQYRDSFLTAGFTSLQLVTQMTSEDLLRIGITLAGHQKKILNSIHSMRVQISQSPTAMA

Row | Sequence | phosphorylation enrichment (AncSZ) | phosphorylation enrichment (EPHB1) | phosphorylation enrichment (EPHB2) | phosphorylation enrichment (FGFR1) | phosphorylation enrichment (FGFR3) | phosphorylation enrichment (Fer (mouse)) | phosphorylation enrichment (Fes) | phosphorylation enrichment (Fyn) | phosphorylation enrichment (Hck) | phosphorylation enrichment (Jak2) | phosphorylation enrichment (MERTK) | phosphorylation enrichment (c-Abl (mouse)) | phosphorylation enrichment (c-Src) | SH2 binding enrichment (Grb2 SH2) | SH2 binding enrichment (SHP2-C SH2) | SH2 binding enrichment (c-Src SH2)
1 | FIPFRYPKEFQ [IDS_Y234_H229Y_YF] | 0.705 | 0.316 | 0.494 | 0.465 | 0.516 | 0.323 | 0.883 | 0.469 | 0.469 | 0.548 | 0.409 | 0.595 | 0.565 | 0.876 | 0.613 | 0.534
2 | EHTILYSNNST [KANSL1_Y223_T221I] | 0.715 | 0.456 | 0.454 | 0.461 | 0.468 | 0.732 | 0.662 | 0.437 | 0.43 | 0.488 | 0.5 | 0.581 | 0.547 | 0.845 | 0.71 | 0.691
3 | PVDNLYAEPAV [PRPS1_Y146] | 2.52 | 5.2 | 9.31 | 0.61 | 0.986 | 4.64 | 1.31 | 1.96 | 3.99 | 1.02 | 6.34 | 8.54 | 1.56 | 1.04 | 0.63 | 0.671
4 | GIFSGYDDAWD [POLR1C_Y36_N32I_YF] | 1.1 | 0.51 | 0.651 | 0.531 | 0.7 | 0.477 | 1.14 | 0.551 | 0.547 | 1.07 | 0.481 | 0.746 | 0.514 | 0.968 | 0.695 | 4.13
5 | TDLAFYLVREG [ASL_Y376_K380E_YF] | 1.28 | 0.709 | 0.703 | 0.574 | 1.01 | 0.555 | 1.59 | 0.437 | 0.546 | 1.24 | 0.501 | 0.85 | 0.519 | 0.634 | 0.675 | 0.612
6 | SRDDDYETIAM [NPY1R_Y347] | 1.75 | 1.31 | 1.03 | 0.599 | 0.753 | 1.11 | 1.28 | 0.612 | 0.737 | 1.16 | 0.5 | 0.977 | 0.562 | 0.979 | 0.789 | 0.8
7 | RLPINYTTRRI [LAMA2_Y2894_G2889R] | 0.873 | 0.433 | 0.519 | 0.743 | 0.839 | 0.289 | 0.602 | 0.35 | 0.534 | 0.547 | 0.663 | 0.638 | 0.626 | 0.76 | 0.636 | 0.471
8 | KPGLVYNKVNP [SPRED3_Y72] | 0.704 | 0.413 | 0.395 | 0.383 | 0.453 | 0.409 | 0.595 | 0.424 | 0.603 | 0.936 | 0.402 | 0.675 | 0.539 | 0.951 | 0.788 | 0.815
9 | SQQTFCRVSNM [ABCD1_Y181_Y181C_YF] | 0.636 | 0.461 | 0.515 | 0.446 | 0.615 | 0.408 | 0.679 | 0.453 | 0.5 | 0.554 | 0.412 | 0.567 | 0.411 | 0.808 | 0.713 | 0.502
10 | FSMGCYEISLG [HMGCL_Y198_YF] | 1.93 | 1.03 | 1.01 | 0.652 | 1.05 | 1.68 | 1.47 | 0.993 | 0.836 | 1.6 | 0.866 | 0.965 | 1.64 | 0.641 | 0.785 | 0.505
11 | EKAEVYRSENE [RIOK2_Y348_G349R] | 1.09 | 0.51 | 0.738 | 0.507 | 0.724 | 0.466 | 1.08 | 0.448 | 0.499 | 0.863 | 0.44 | 0.77 | 0.509 | 0.94 | 0.653 | 0.502
12 | SKNSKYNAEST [PSEN1_Y315] | 0.482 | 0.309 | 0.426 | 0.339 | 0.366 | 0.396 | 0.609 | 0.363 | 0.351 | 0.673 | 0.35 | 0.52 | 0.425 | 0.759 | 0.595 | 0.489
13 | PQGVRYIFTID [DCX_Y103_YF] | 1.68 | 0.587 | 0.524 | 0.61 | 0.96 | 0.826 | 3.66 | 0.617 | 0.714 | 1.89 | 0.664 | 1.38 | 0.587 | 0.602 | 1.09 | 0.654
14 | YARECYSALPQ [SARS2_Y52_G51C] | 1.16 | 0.712 | 0.868 | 2.42 | 1.57 | 0.663 | 0.972 | 0.636 | 3.13 | 0.666 | 1.7 | 0.716 | 0.676 | 0.74 | 0.753 | 0.776
15 | NPQKSCFIRLF [WAS_Y83_Y83C_YF] | 1.06 | 0.606 | 0.578 | 0.583 | 0.704 | 0.47 | 1.18 | 0.459 | 0.526 | 0.974 | 0.467 | 0.848 | 0.453 | 0.862 | 0.817 | 0.631
16 | SGPRRYTIAAL [TTR_Y125] | 0.605 | 0.444 | 0.53 | 0.456 | 0.419 | 0.383 | 0.579 | 0.482 | 0.375 | 0.639 | 0.428 | 0.637 | 0.498 | 0.867 | 0.572 | 0.533
17 | FGSSSYGGAGG [RPA2_Y14_YF] | 0.415 | 0.431 | 0.401 | 0.437 | 0.436 | 0.334 | 0.559 | 0.45 | 0.374 | 0.544 | 0.329 | 0.677 | 0.43 | 0.743 | 0.58 | 0.394
